Results as given in patent US20070298412A1 (ZAKRYTOE AKTSIONERNOE OBSCHESTVO EVROGEN, published 2007).
Where a chain is given by its changes, count along the chain named. In names and notes the source's numbering stands.

B1: phiYFP, yellow fluorescent protein from Phialidium sp. (wild type) (other)
chain: MSSGALLFHGKIPYVVEMEGNVDGHTFSIRGKGYGDASVGKVDAQFICTTGDVPVPWSTLVTTLTYGAQCFAKYGPELKDFYKSCMPEGYVQERTITFEGDGVFKTRAEVTFENGSVYNRVKLNGQGFKKDGHVLGKNLEFNFTPHCLYIWGDQANHGLKSAFKIMHEITGSKEDFIVADHTQMNTPIGGGPVHVPEYHHITYHVTLSKDVTDHRDNMSLVETVRAVDCRKTYL
notes: Recombinant protein from the whole coding region, expressed in E. coli and purified on TALON; Found to be a homodimer by gel electrophoresis of non-heated samples and by gel filtration; not shown: N-terminal six-histidine tag from the pQE30 vector
B2: phiYFP-Y1 (phiYFP mutant with S2P, E174G, I201M) (other)
chain: B1 chain with S2P, E174G, I201M
notes: Found to be a homodimer
B3: phiYFP-M0 (phiYFP mutant with S2P, V103N, M166R, E174G, Y198N, I201M, T202S, T206K, V221K) (other)
chain: B1 chain with S2P, V103N, M166R, E174G, Y198N, I201M, T202S, T206K, V221K
notes: No tag is stated for the tested sample
B4: phiYFP-M1 (phiYFP mutant with E88D, V103N, M166C, E174G, I201M, T202S, T206K, V221K) (other)
chain: B1 chain with E88D, V103N, M166C, E174G, I201M, T202S, T206K, V221K
notes: No tag is stated for the gel-filtration sample
B5: S3-2 red fluorescent mutant of hm2CP (other)
chain: MEGGPALFQSDMTFKIFIDGVVNGQKFTIVADGSSKFPHGDFNVHAVCETGKLPMSWKPICHLIQYGEPFFARYPNGISHFAQECFPEGLSIDRTVRFENDGTMTSHHTYELDGTCVVSRITVNCDGFQPDGPIMRDQLVDILPNETHMFPHGPNAVRQLAFIGFTTADGGLMMSHFDSKMTFNGSRAIKIPGPHFVTTITKQMKDTSDKRDHVCQREVTYAHSVPRITSAI
notes: No tag is stated for the gel-filtration sample; also called S3-2 red fluorescent protein

Assays:
[1] = target: the molecule itself; assay: gel electrophoresis of non-heated samples and gel filtration on Sephadex-100 (homodimer)
Description: Under these conditions these FPs migrated as yellow fluorescent band at about 50 kDa. […] Purified protein samples (˜1 mg/ml) were loaded onto a Sephadex-100 column (0.7×60 cm) and eluted with a solution of 50 mM phosphate buffer (pH 7.0) and 100 mM NaCl. EGFP, HcRed1 and DsRed2 (Clontech) were used as monomer, dimer and tetramer standards, respectively.

[2] = target: the molecule itself; assay: gel filtration (self-association)

| Protein | binding result [1] | binding result [2] |
| --- | --- | --- |
| B1 | binds |  |
| B2 | binds |  |
| B3 |  | no binding |
| B4 |  | no binding |
| B5 |  | no binding |
